Measurements taken from patent publication US20260209350A1.

T1: recombinant human TREM2-DAP12 fusion protein on cells (human) (UniProt Q9NZC2)
T1 sequence: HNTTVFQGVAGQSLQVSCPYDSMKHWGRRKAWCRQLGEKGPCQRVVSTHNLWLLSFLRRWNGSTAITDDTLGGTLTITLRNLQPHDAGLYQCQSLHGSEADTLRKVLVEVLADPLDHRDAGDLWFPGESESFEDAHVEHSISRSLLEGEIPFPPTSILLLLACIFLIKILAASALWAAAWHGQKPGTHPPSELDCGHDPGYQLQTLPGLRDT

B1: Ab45 (antibody, human IgG1, V domains shown)
VH: QVQLVQSGAEVKKPGASVKVSCKASGYTFTSYYMHWVRQAPGQGLEWMGIINPSGGSTSYAQKFQGRVTMTRDTSTSTVYMELSSLRSEDTAVYYCARGPGYTTALDYYYMDVWGKGTTVTVSS
VL: EIVMTQSPATLSVSPGERATLSCRASQSVSSNLAWYQQKPGQAPRLLIYGASTRATGIPARFSGSGSGTEFTLTISSLQSEDFAVYYCQQLDDWFTFGGGTKVEIK
B2: Ab52 (antibody, human IgG1, V domains shown)
VH: QVQLVQSGAEVKKPGASVKVSCKASGYTFTSYYIHWVRQAPGQGLEWMGIINPSGGSTSYAQKFQGRVTMTRDTSTSTVYMELSSLRSEDTAVYYCAREADDSSGYPLGLDVWGQGTMVTVSS
VL: EIVMTQSPATLSVSPGERATLSCRASQSVSSNLAWYQQKPGQAPRLLIYGASTRATGIPARFSGSGSGTEFTLTISSLQSEDFAVYYCQQVNSLPPTFGGGTKVEIK
B3: Ab72 (antibody, human IgG1, V domains shown)
VH: QVQLQESGPGLVKPSETLSLTCTVSGGSISSYYWSWIRQPPGKGLEWIGSIYYSGSTNYNPSLKSRVTISVDTSKNQFSLKLSSVTAADTAVYYCARSGTETLFDYWGQGTLVTVSS
VL: DIQMTQSPSSLSASVGDRVTITCQASQDITNYLNWYQQKPGKAPKLLIYDASNLETGVPSRFSGSRSGTDFTFTISSLQPEDIATYYCQQDVNYPPTFGGGTKVEIK
B4: Ab64 (antibody, human IgG1, V domains shown)
VH: EVQLVQSGAEVKKPGESLKISCKGSGYSFTSYWIGWVRQMPGKGLEWMGIIYPGDSDTRYSPSFQGQVTISADKSISTAYLQWSSLKASDTAMYYCARLGRWSSGSTAFDIWGQGTMVTVSS
VL: EIVMTQSPATLSVSPGERATLSCRASQSVSSNLAWYQQKPGQAPRLLIYGASTRATGIPARFSGSGSGTEFTLTISSLQSEDFAVYYCQQDDDGYTFGGGTKVEIK
B5: Ab73 (antibody, human IgG1, V domains shown)
VH: EVQLVQSGAEVKKPGESLKISCKGSGYSFTSYWIGWVRQMPGKGLEWMGIIYPGDSDTTYSPSFQGQVTISADKSISTAYLQWSSLKASDTAMYYCARAKMLDDGYAFDIWGQGTMVTVSS
VL: EIVMTQSPATLSVSPGERATLSCRASQSVSSNLAWYQQKPGQAPRLLIYGASTRATGIPARFSGSGSGTEFTLTISSLQSEDFAVYYCQQDDNYPYTFGGGTKVEIK
B6: Ab15 (antibody, human IgG1, V domains shown)
VH: QVQLQESGPGLVKPSQTLSLTCTVSGGSISSGGYYWSWIRQHPGKGLEWIGNIYYSGSTVYNPSLKSRVTISVDTSKNQFSLKLSSVTAADTAVYYCARGLYGYGVLDVWGQGTMVTVSS
VL: DIQMTQSPSSLSASVGDRVTITCQASQDISNYLNWYQQKPGKAPKLLIYDASNLETGVPSRFSGSGSGTDFTFTISSLQPEDIATYYCQQFDTYPTFGGGTKVEIK
B7: Ab12 (antibody, human IgG1, V domains shown)
VH: EVQLVQSGAEVKKPGESLKISCKGSGYSFTSYWIGWVRQMPGKGLEWMGIIYPGDSDTRYSPSFQGQVTISADKSISTAYLQWSSLKASDTAMYYCARLGHYSGTVSSYGMDVWGQGTTVTVSS
VL: DIQMTQSPSSLSASVGDRVTITCRASQSISSYLNWYQQKPGKAPKLLIYAASSLQSGVPSRFSGSGSGTDFTLTISSLQPEDFATYYCQQEYAVPYTFGGGTKVEIK
B8: Ab82 (antibody, human IgG1, V domains shown)
VH: QVQLQESGPGLVKPSQTLSLTCTVSGGSISSGGYYWSWIRQHPGKGLEWIGYIYYSGSTVYNPSLKSRVTISVDTSKNQFSLKLSSVTAADTAVYYCARVSSSWYKAWGQGTMVTVSS
VL: DIQMTQSPSSVSASVGDRVTITCRASQGISSWLAWYQQKPGKAPKLLIYAASSLQSGVPSRFSGSGSGTDFTLTISSLQPEDFATYYCQQASTFPITFGGGTKVEIK
B9: Ab63 (antibody, human IgG1, V domains shown)
VH: QVQLVQSGAEVKKPGASVKVSCKASGYTFTSYGISWVRQAPGQGLEWMGWISTYNGNTNYAQKLQGRVTMTTDTSTSTAYMELRSLRSDDTAVYYCARGSGSGYDSWYDWGQGTLVTVSS
VL: DIQMTQSPSSVSASVGDRVTITCRASQGIDSWLAWYQQKPGKAPKLLIYAASSLQSGVPSRFSGSGSGTDFTLTISSLQPEDFATYYCQQAYSLPPTFGGGTKVEIK
B10: Ab83 (antibody, human IgG1, V domains shown)
VH: QVQLQQWGAGLLKPSETLSLTCAVYGGSFSGYYWSWIRQPPGKGLEWIGEIDHSGSTKYNPSLKSRVTISVDTSKNQFSLKLSSVTAADTAVYYCARVGVVVGRPGYSAFDIWGQGTMVTVSS
VL: DIQMTQSPSSVSASVGDRVTITCRASQGISSWLAWYQQKPGKAPKLLIYAASSLQSGVPSRFSGSGSGTDFTLTISSLQPEDFATYYCQQRNSLPLTFGGGTKVEIK
B11: Ab54 (antibody, human IgG1, V domains shown)
VH: QVQLVQSGAEVKKPGASVKVSCKASGYTFTSYYMHWVRQAPGQGLEWMGIINPSGGSTSYAQKFQGRVTMTRDTSTSTVYMELSSLRSEDTAVYYCARGPGYTTALDYYYMDVWGKGTTVTVSS
VL: DIQMTQSPSSLSASVGDRVTITCRASQSINSYLNWYQQKPGKAPKLLIYAASSLQSGVPSRFSGSGSGTDFTLTISSLQPEDFATYYCQQSDDDPFTFGGGTKVEIK
B12: Ab8 (antibody, human IgG1, V domains shown)
VH: QLQLQESGPGLVKPSETLSLTCTVSGGSISSSSYYWGWIRQPPGKGLEWIGSISYSGSTYYNPSLKSRVTISVDTSKNQFSLKLSSVTAADTAVYYCARGPYRLLLGMDVWGQGTTVTVSS
VL: DIQMTQSPSSLSASVGDRVTITCRASQSISSYLNWYQQKPGKAPKLLIYGASSLQSGVPSRFSGSGSGTDFTLTISSLQPEDFATYYCQQIDDTPITFGGGTKVEIK
B13: Ab51 (antibody, human IgG1, V domains shown)
VH: QVQLVQSGAEVKKPGASVKVSCKASGYTFTSYYMHWVRQAPGQGLEWMGIINPSGGSTSYAQKFQGRVTMTRDTSTSTVYMELSSLRSEDTAVYYCARGVGGQDYYYMDVWGKGTTVTVSS
VL: DIQMTQSPSSLSASVGDRVTITCRASQSISSYLNWYQQKPGKAPKLLIYAASSLQSGVPSRFSGSGSGTDFTLTISSLQPEDFATYYCQQFDDVFTFGGGTKVEIK

What follows are binders tested against T1, recombinant human TREM2-DAP12 fusion protein on cells (human) (assay: FACS, 293 cells).
B1 was tested, and the MFI was 2060 MFI.
With B2 the MFI was 1410 MFI.

The binders below were run against T1, recombinant human TREM2-DAP12 fusion protein on cells (human) (assay: FACS, hTrem2 cells).
Work on B3 yielded an MFI of 1500 MFI.
B4 showed an MFI of 1460 MFI.
Work on B2 yielded an MFI of 1410 MFI.
Binder B5 has an MFI of 1310 MFI.
Work on B6 yielded an MFI of 1610 MFI.
B7 showed an MFI of 1930 MFI.
B8 gave an MFI of 371 MFI.
Binder B9 has an MFI of 1350 MFI.
For B10, the MFI was 684 MFI.
With B11 the MFI was 1930 MFI.
B12 gave an MFI of 1620 MFI.
In the case of B13, the MFI is reported as 1930 MFI.
